These results are taken from article PMC3937308, “The Post-transcriptional Regulator rsmA/csrA Activates T3SS by Stabilizing the 5′ UTR of hrpG, the Master Regulator of hrp/hrc Genes, in Xanthomonas”.

Series [1] has as its target T1, 6HisRsmA (RsmAxcc) (Xanthomonas citri subsp. citri strain …, UniProt Q8PLP9 1-70). As to the kind of experiment: EMSA; 10 mM HEPES pH 7.3, 20 mM KCl, 1 mM MgCl2, 1 mM DTT, 5% glycerol, 0.1 µg/µL yeast tRNA, 20 U RNasin, 25 °C 20 min; 5% native PAGE. The settings on record: protein: recombinant; tags: N-terminal 6xHis (pET-28a, NdeI site); chain copies: 2; label: 3' biotin.

Series [2] addresses T1, 6HisRsmA (RsmAxcc). As to the kind of experiment: EMSA; 65 nM protein, 6.25 nM RNA; 10 mM HEPES pH 7.3, 20 mM KCl, 1 mM MgCl2, 1 mM DTT, 5% glycerol, 0.1 µg/µL yeast tRNA, 20 U RNasin, 25 °C 20 min; 5% native PAGE. The following applies: protein: recombinant; tags: N-terminal 6xHis (pET-28a, NdeI site); chain copies: 2. For orientation: In EMSA bound probe runs differently from free probe, usually more slowly.

For series [3], the target named is T1, 6HisRsmA (RsmAxcc). As to the kind of experiment: EMSA; apparent Kd; 6.25 nM RNA; 10 mM HEPES pH 7.3, 20 mM KCl, 1 mM MgCl2, 1 mM DTT, 5% glycerol, 0.1 µg/µL yeast tRNA, 20 U RNasin, 25 °C 20 min; 5% native PAGE. The settings on record: protein: recombinant; tags: N-terminal 6xHis (pET-28a, NdeI site); chain copies: 2; label: 3' biotin.

T1 sequence (Q8PLP9 whole entry): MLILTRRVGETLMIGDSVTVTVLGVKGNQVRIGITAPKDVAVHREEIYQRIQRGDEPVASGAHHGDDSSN

Consider GUGUACGGUCCGCAUGUCAUUAAAACGAGGUGCAGUGUG (ssRNA) [hrpB], for which the binding result in the series with 6HisRsmA (RsmAxcc) [1] is given as “no binding”.

As to GGGAAUUCAACUCCAUCUAGGCACAAGGAUGUGCCAUAGUACUCAAGCU (structured_RNA) [R9-43], the binding result in the series with 6HisRsmA (RsmAxcc) [2] is reported as “binds”.

With GUUAGGCGCCUGUUGUCUUUUGCUCCGCCCCCCAAAGAGAGAGAC (ssRNA) [hrpX], in the series with 6HisRsmA (RsmAxcc) [1], the binding result is given as “no binding”.

Take GCCCAUCGCGCAGAUUGGCAACAUACGGCUACACCGCAUG (ssRNA) [hrpF]: the binding result in the series with 6HisRsmA (RsmAxcc) [1] is reported as “no binding”. Still for that read-out and setting: in the case of AUUCGUCCAGCUCCGCUGGACUCUC (ssRNA) [hrpG1] it was “no binding”; in that of GCGCAGCGAUCGCGGAAGGAGAGGGCAAUG (ssRNA) [hrpC], “no binding”.

With ACGAUGCAGCGAUCUUUGAAGAUGGAUUUUGUCCUGGCAUUG (ssRNA) [hrpG2], the Kd with 6HisRsmA (RsmAxcc) [3] came out at 180 ± 200 nM.
